# Assay results: publication PMC6517402 (Scientific Reports, 2019)
# B1: ORF212 tailspike protein (TSP3) of E. coli O157:H7 phage CBA120 (enzyme, UniProt G3M191 1-627, looked up)
# chain: MISQFNQPRGSTSIEVNKQSIARNFGVKEDEVIYFTAGIDLSGFKVIYDESTQRAYSLPFGIVSGTTAISLDERAILTHSAGSVDLGELAVSREEYVTLPGSFNFGHTINVKNELLVHDDKKYRWDGSLPKVVAAGSTPDSSGGVGLGAWLSVGDAALRAELNTKVSDGTFPATIKYKYGLPSVIDGAIYRTVQDKLDDFVFLEDFGGKDDAGSTDNSIAFRKAFASGARKIRLRGSGVYGMATRDIELPAKYEIIGNAKNPEIKYLGTDTSFTMFTLTGSGPASNQWKQGGMFRDLIISSDVKINWMLGRHVQNLDYDRVFFYNSATVLNNYHYVNFTRCERWGSAFIGRADLNTIQFISESPKFHLCFSSGSPIDVWDTADLAITKCTMFAGDYAVRTRVTQKQVTAPDLFAGYPVLITCSVFDAVRGHAWDLEGSVYSTITGNLVSAGRDTNSHGAYIKGGRSLSLTGNVFTYCGNYGLVLEDVQQSGFVGNVFNGNKTGGLGTLACKDLSIVGGSMGTTYVRGGYYTQPVGYSDISSNSTGILLSGVAFDEALTTKVYLDTSITTRNKVINCSGVPDTIARGSTANRPANPQASYQYYDTTLGIPIWWNSVSGTWKNAAGADV
# notes: also called CBA120 TSP3; wild-type TSP3
# Molecular target: the molecule itself
# Assay: crystal structure; X-ray, 1.85 Å, SAD phasing with SeMet protein, then molecular replacement into the wild-type crystal; three molecules in the asymmetric unit
protein,measurement,value
B1,stoichiometry N,3
